From article PMC6547012, “TCP Transcription Factors Associate with PHYTOCHROME INTERACTING FACTOR 4 and CRYPTOCHROME 1 to Regulate Thermomorphogenesis in Arabidopsis thaliana” (iScience, 2019) come the findings set out here.

The target in this assay is T1, FLAG-CRY1 (Arabidopsis thaliana, UniProt Q43125 1-681).
T1 construct: CRYPTOCHROME 1 (CRY1), Arabidopsis thaliana; source: E. coli-purified
The assay is described as follows: pull-down; in vitro pull-down; MBP or MBP-TCP17 incubated with FLAG-CRY1 for 2 h at 4°C; immunoblot with anti-MBP or anti-FLAG. To be noted: both partners purified.

T1 sequence (Q43125 whole entry): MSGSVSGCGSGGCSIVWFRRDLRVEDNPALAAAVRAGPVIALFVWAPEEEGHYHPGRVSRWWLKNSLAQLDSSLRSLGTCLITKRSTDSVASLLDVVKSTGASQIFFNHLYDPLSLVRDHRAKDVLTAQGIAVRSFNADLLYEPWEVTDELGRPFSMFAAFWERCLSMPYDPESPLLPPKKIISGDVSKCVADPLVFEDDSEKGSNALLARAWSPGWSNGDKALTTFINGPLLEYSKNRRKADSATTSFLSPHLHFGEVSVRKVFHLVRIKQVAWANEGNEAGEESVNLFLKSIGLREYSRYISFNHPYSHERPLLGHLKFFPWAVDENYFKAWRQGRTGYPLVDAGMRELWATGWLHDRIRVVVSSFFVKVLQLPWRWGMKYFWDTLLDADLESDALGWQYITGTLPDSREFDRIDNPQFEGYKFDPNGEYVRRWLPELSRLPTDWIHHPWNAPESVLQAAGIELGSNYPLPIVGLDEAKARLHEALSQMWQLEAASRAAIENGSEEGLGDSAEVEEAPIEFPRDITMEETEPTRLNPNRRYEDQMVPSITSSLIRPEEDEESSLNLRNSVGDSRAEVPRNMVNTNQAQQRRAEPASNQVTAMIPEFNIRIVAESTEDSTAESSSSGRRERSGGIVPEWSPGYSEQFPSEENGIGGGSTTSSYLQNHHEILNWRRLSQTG

B1: MBP-TCP17 (natural protein, Arabidopsis thaliana, UniProt Q9LEZ9 1-242, looked up)
chain: MGIKKEDQKSSLSLLTQRWNNPRIVRVSRAFGGKDRHSKVCTVRGLRDRRIRLSVMTAIQVYDLQERLGLSQPSKVIDWLLEVAKNDVDLLPPLQFPPGFHQLNPNLTGLGESFPGVFDLGRTQREALDLEKRKWVNLDHVFDHIDHHNHFSNSIQSNKLYFPTITSSSSSYHYNLGHLQQSLLDQSGNVTVAFSNNYNNNNLNPPAAETMSSLFPTRYPSFLGGGQLQLFSSTSSQPDHIE
notes: TCP17, Arabidopsis thaliana; also called MBP-tagged TCP17; source: E. coli expressed and purified
In the case of B1, the binding result is reported as “binds”.
